Numbering of substitutions follows the chain as printed. Names and notes keep the numbering of the source.
T1: TIGIT (human)
T1 chain: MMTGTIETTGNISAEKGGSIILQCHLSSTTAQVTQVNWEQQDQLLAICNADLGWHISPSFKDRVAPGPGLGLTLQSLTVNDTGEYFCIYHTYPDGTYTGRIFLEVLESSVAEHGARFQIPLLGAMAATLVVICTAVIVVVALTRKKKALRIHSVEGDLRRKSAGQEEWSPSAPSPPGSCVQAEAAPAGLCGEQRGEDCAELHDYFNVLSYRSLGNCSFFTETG

B1: variant CD155 IgV-Fc V9I, Q12K, P18F, S65A, S67V, L79P, L104T, G111R, S112I (Fc fusion)
chain: WPPPGTGDIVVKAPTQVFGFLGDSVTLPCYLQVPNMEVTHVSQLTWARHGESGSMAVFHQTQGPAYVESKRLEFVAARPGAELRNASLRMFGLRVEDEGNYTCTFVTFPQRIRSVDIWLRVLGSGGGGSEPKSSDKTHTCPPCPAPEAEGAPSVFLFPPKPKDTLMISRTPEVTCVVVDVSHEDPEVKFNWYVDGVEVHNAKTKPREEQYNSTYRVVSVLTVLHQDWLNGKEYKCKVSNKALPAPIEKTISKAKGQPREPQVYTLPPSRDELTKNQVSLTCLVKGFYPSDIAVEWESNGQPENNYKTTPPVLDSDGSFFLYSKLTVDKSRWQQGNVFSCSVMHEALHNHYTQKSLSLSPGK
B2: variant CD155 IgV-Fc P18S, D23G, C29R, N35D, E37G, M55I, Q62K, S65A, S67G, R78G, L79P, F91S, L104M, T107M, Q110R (Fc fusion)
chain: WPPPGTGDVVVQAPTQVSGFLGGSVTLPRYLQVPDMGVTHVSQLTWARHGESGSIAVFHQTKGPAYGESKRLEFVAAGPGAELRNASLRMSGLRVEDEGNYTCMFVMFPRGSRSVDIWLRVLGSGGGGSEPKSSDKTHTCPPCPAPEAEGAPSVFLFPPKPKDTLMISRTPEVTCVVVDVSHEDPEVKFNWYVDGVEVHNAKTKPREEQYNSTYRVVSVLTVLHQDWLNGKEYKCKVSNKALPAPIEKTISKAKGQPREPQVYTLPPSRDELTKNQVSLTCLVKGFYPSDIAVEWESNGQPENNYKTTPPVLDSDGSFFLYSKLTVDKSRWQQGNVFSCSVMHEALHNHYTQKSLSLSPGK
B3: variant CD155 IgV-Fc V11E, P18H, F20Y, V25E, N35S, H49R, L79P, F91S, T107M, G111R (Fc fusion)
chain: WPPPGTGDVVEQAPTQVHGYLGDSETLPCYLQVPSMEVTHVSQLTWARRGESGSMAVFHQTQGPSYSESKRLEFVAARPGAELRNASLRMSGLRVEDEGNYTCLFVMFPQRSRSVDIWLRVLGSGGGGSEPKSSDKTHTCPPCPAPEAEGAPSVFLFPPKPKDTLMISRTPEVTCVVVDVSHEDPEVKFNWYVDGVEVHNAKTKPREEQYNSTYRVVSVLTVLHQDWLNGKEYKCKVSNKALPAPIEKTISKAKGQPREPQVYTLPPSRDELTKNQVSLTCLVKGFYPSDIAVEWESNGQPENNYKTTPPVLDSDGSFFLYSKLTVDKSRWQQGNVFSCSVMHEALHNHYTQKSLSLSPGK
B4: variant CD155 IgV-Fc P18T, S52A, V57A, Q60R, Q62K, S65C, L79P, F91T, N100Y, T107M (Fc fusion)
chain: WPPPGTGDVVVQAPTQVTGFLGDSVTLPCYLQVPNMEVTHVSQLTWARHGEAGSMAAFHRTKGPCYSESKRLEFVAARPGAELRNASLRMTGLRVEDEGYYTCLFVMFPQGSRSVDIWLRVLGSGGGGSEPKSSDKTHTCPPCPAPEAEGAPSVFLFPPKPKDTLMISRTPEVTCVVVDVSHEDPEVKFNWYVDGVEVHNAKTKPREEQYNSTYRVVSVLTVLHQDWLNGKEYKCKVSNKALPAPIEKTISKAKGQPREPQVYTLPPSRDELTKNQVSLTCLVKGFYPSDIAVEWESNGQPENNYKTTPPVLDSDGSFFLYSKLTVDKSRWQQGNVFSCSVMHEALHNHYTQKSLSLSPGK
B5: variant CD155 IgV-Fc P18S, A47G, L79P, F91S, L104M, T107A, R113W (Fc fusion)
chain: WPPPGTGDVVVQAPTQVSGFLGDSVTLPCYLQVPNMEVTHVSQLTWGRHGESGSMAVFHQTQGPSYSESKRLEFVAARPGAELRNASLRMSGLRVEDEGNYTCMFVAFPQGSWSVDIWLRVLGSGGGGSEPKSSDKTHTCPPCPAPEAEGAPSVFLFPPKPKDTLMISRTPEVTCVVVDVSHEDPEVKFNWYVDGVEVHNAKTKPREEQYNSTYRVVSVLTVLHQDWLNGKEYKCKVSNKALPAPIEKTISKAKGQPREPQVYTLPPSRDELTKNQVSLTCLVKGFYPSDIAVEWESNGQPENNYKTTPPVLDSDGSFFLYSKLTVDKSRWQQGNVFSCSVMHEALHNHYTQKSLSLSPGK
B6: variant CD155 IgV-Fc P18T, S52P, S65A, S67V, L79P, F91S, L104M, G111R (Fc fusion)
chain: B1 chain with I9V, K12Q, F18T, S52P, F91S, T104M, I112S
B7: variant CD155 IgV-Fc P18C, T26M, L44V, M55I, Q62K, L79P, F91S, L104M, T107M (Fc fusion)
chain: B5 chain with S18C, T26M, L44V, G47A, M55I, Q62K, A107M, W113R
B8: variant CD155 IgV-Fc V9I, V10I, P18S, F20S, T45A, L79P, F91S, L104M, F108Y, G111R, S112V (Fc fusion)
chain: B5 chain with V9I, V10I, F20S, T45A, G47A, A107T, F108Y, G111R, S112V, W113R
B9: variant CD155 IgV-Fc P18T, D23G, S24A, N35D, H49L, L79P, F91S, L104M, G111R (Fc fusion)
chain: B5 chain with S18T, D23G, S24A, N35D, G47A, H49L, A107T, G111R, W113R
B10: variant CD155 IgV-Fc P18S, V41A, H49R, S54C, L79S, N85Y, L88P, F91S, L104M, T107M (Fc fusion)
chain: B5 chain with V41A, G47A, H49R, S54C, P79S, N85Y, L88P, A107M, W113R
B11: variant CD155 IgV-Fc V9L, P18S, Q60R, V75L, L79P, R89K, F91S, L104E, G111R (Fc fusion)
chain: B5 chain with V9L, G47A, Q60R, V75L, R89K, M104E, A107T, G111R, W113R
B12: variant CD155 IgV-Fc P18F, T26M, L44V, Q62K, L79P, E82D, F91S, L104M, G111D (Fc fusion)
chain: B5 chain with S18F, T26M, L44V, G47A, Q62K, E82D, A107T, G111D, W113R
B13: variant CD155 IgV-Fc P18L, K70E, L79P, F91S, V95A, G111R (Fc fusion)
chain: B5 chain with S18L, G47A, K70E, V95A, M104L, A107T, G111R, W113R
B14: variant CD155 IgV-Fc V9A, P18F, T61S, Q62L, L79P, F91S, G111R (Fc fusion)
chain: B1 chain with I9A, K12Q, T61S, Q62L, A65S, V67S, F91S, T104L, I112S
B15: variant CD155 IgV-Fc P18T, M36T, L79P, F91S, G111R (Fc fusion)
chain: B5 chain with S18T, M36T, G47A, M104L, A107T, G111R, W113R
B16: variant CD155 IgV-Fc V9L, P18L, L79P, M90I, F91S, T102S, L104M, G111R (Fc fusion)
chain: B5 chain with V9L, S18L, G47A, M90I, T102S, A107T, G111R, W113R
B17: variant CD155 IgV-Fc P18T, E37G, G53R, Q62K, L79P, F91S, E98D, L104M, T107M (Fc fusion)
chain: B5 chain with S18T, E37G, G47A, G53R, Q62K, E98D, A107M, W113R
B18: variant CD155 IgV-Fc T15I, P18T, L79P, F91S, L104M, G111R (Fc fusion)
chain: B5 chain with T15I, S18T, G47A, A107T, G111R, W113R
B19: variant CD155 IgV-Fc P18S, S52P, S65A, S67V, L79P, F91S, L104M, T107S, R113W (Fc fusion)
chain: B5 chain with G47A, S52P, S65A, S67V, A107S
B20: variant CD155 IgV-Fc V11A, P18S, S54R, Q60P, Q62K, L79P, N85D, F91S, T107M (Fc fusion)
chain: B5 chain with V11A, G47A, S54R, Q60P, Q62K, N85D, M104L, A107M, W113R
B21: variant CD155 IgV-Fc V11A, P18S, L79P, F91S, L104M, G111R (Fc fusion)
chain: B5 chain with V11A, G47A, A107T, G111R, W113R
B22: variant CD155 IgV-Fc V11A, P18T, N35S, L79P, S87T, F91S (Fc fusion)
chain: B3 chain with E11A, H18T, Y20F, E25V, R49H, S87T, M107T, R111G
B23: variant CD155 IgV-Fc V9I, P18T, H49R, L79P, N85D, F91S, L104T, T107M (Fc fusion)
chain: B5 chain with V9I, S18T, G47A, H49R, N85D, M104T, A107M, W113R
B24: variant CD155 IgV-Fc P18F, S65A, S67V, F91S, L104M, G111R (Fc fusion)
chain: B1 chain with I9V, K12Q, P79L, F91S, T104M, I112S
B25: variant CD155 IgV-Fc D8G, P18S, M36I, V38A, H49Q, A76E, F91S, L104M, T107A, R113W (Fc fusion)
chain: B5 chain with D8G, M36I, V38A, G47A, H49Q, A76E, P79L
B26: variant CD155 IgV-Fc V9I, P18T, D23G, L79P, F91S, G111R (Fc fusion)
chain: B1 chain with K12Q, F18T, D23G, A65S, V67S, F91S, T104L, I112S
B27: variant CD155 IgV-Fc V9L, P18Y, V25A, V38G, M55V, A77T, L79P, M90I, F91S, L104M (Fc fusion)
chain: B5 chain with V9L, S18Y, V25A, V38G, G47A, M55V, A77T, M90I, A107T, W113R

Experiments:
[1] = target: T1, TIGIT; test: cell-based or functional assay
[2] = target: T1, TIGIT; test: cell-based or functional assay

| IL-2 luciferase reporter, Normalized Fold Change from CD155-ECD, proteins at 50 nM [1] | IL-2 luciferase reporter, Normalized Fold Change from CD155-ECD [2] | Binder |
| --- | --- | --- |
| 2.3 fold | – | B1 |
| – | 1.2 fold | B2 |
| – | -0.6 fold | B3 |
| – | 2.1 fold | B4 |
| 5 fold | – | B5 |
| 3.6 fold | – | B6 |
| 1.6 fold | – | B7 |
| -1.9 fold | – | B8 |
| 3.2 fold | – | B9 |
| – | -1 fold | B10 |
| 1.8 fold | – | B11 |
| 4 fold | – | B12 |
| 2.4 fold | – | B13 |
| – | 1.3 fold | B14 |
| 4.1 fold | – | B15 |
| 2.4 fold | – | B16 |
| 8.6 fold | – | B17 |
| 0.4 fold | – | B18 |
| -0.1 fold | – | B19 |
| 2.6 fold | – | B20 |
| 0.4 fold | – | B21 |
| – | 2.1 fold | B22 |
| – | 4 fold | B23 |
| 0.6 fold | – | B24 |
| 4 fold | – | B25 |
| 2 fold | – | B26 |
| – | 1.2 fold | B27 |
